Assay results as given in the supplement of paper PMC9112550, “Optimization of the antimicrobial peptide Bac7 by deep mutational scanning” (BMC Biology, 2022).

Tested on: Escherichia coli TOP10
Assay: shrunken log2 fold change of peptide-encoding DNA abundance (4.5 h post-induction vs induction); higher = less antimicrobial activity (less host growth inhibition)
Settings: time post-induction: 4.5 h; library: site-saturation at positions 5, 18, 19, 20
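Further: peptides expressed intracellularly from a pBAD plasmid library in pooled LB shake-flask culture, induced with 0.3% L-arabinose, DNA abundance read by NGS, three biological replicates, DESeq2 with apeglm shrinkage.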

Row | Sequence | shrunken log2 fold change
1 | RRIRMRPPRLPRPRPRPICFPRP | 0.149
2 | RRIRMRPPRLPRPRPRPIEPPRP | 0.0361
3 | RRIRMRPPRLPRPRPRPIFEPRP | 0.166
4 | RRIRMRPPRLPRPRPRPIHWPRP | -0.257
5 | RRIRMRPPRLPRPRPRPIIEPRP | -0.0631
6 | RRIRMRPPRLPRPRPRPIIFPRP | -0.0918
7 | RRIRMRPPRLPRPRPRPIKVPRP | -0.149
8 | RRIRMRPPRLPRPRPRPILEPRP | 0.142
9 | RRIRMRPPRLPRPRPRPILHPRP | -0.378
10 | RRIRMRPPRLPRPRPRPIMTPRP | -0.104
11 | RRIRMRPPRLPRPRPRPIMYPRP | -0.171
12 | RRIRMRPPRLPRPRPRPIQTPRP | -0.00151
13 | RRIRMRPPRLPRPRPRPISTPRP | 0.166
14 | RRIRMRPPRLPRPRPRPIVFPRP | 0.038
15 | RRIRMRPPRLPRPRPRPIVKPRP | 0.0312
16 | RRIRMRPPRLPRPRPRPIWAPRP | 0.114
17 | RRIRMRPPRLPRPRPRPIWDPRP | 0.0663
18 | RRIRMRPPRLPRPRPRPIYFPRP | -0.141
19 | RRIRMRPPRLPRPRPRPIYQPRP | -0.236
20 | RRIRMRPPRLPRPRPRPKATPRP | 0.0633
21 | RRIRMRPPRLPRPRPRPKCLPRP | 0.148
22 | RRIRMRPPRLPRPRPRPKDLPRP | 0.153

Row | Sequence | shrunken log2 fold change
23 | RRIRMRPPRLPRPRPRPKEAPRP | -0.00711
24 | RRIRMRPPRLPRPRPRPKESPRP | 0.939
25 | RRIRMRPPRLPRPRPRPKFYPRP | 0.0127
26 | RRIRMRPPRLPRPRPRPKGAPRP | 1.76
27 | RRIRMRPPRLPRPRPRPKGHPRP | 0.0377
28 | RRIRMRPPRLPRPRPRPKGLPRP | -0.0628
29 | RRIRMRPPRLPRPRPRPKGMPRP | 1.37
30 | RRIRMRPPRLPRPRPRPKHEPRP | 0.767
31 | RRIRMRPPRLPRPRPRPKHSPRP | 0.247
32 | RRIRMRPPRLPRPRPRPKKAPRP | 0.0459
33 | RRIRMRPPRLPRPRPRPKKNPRP | 1.46
34 | RRIRMRPPRLPRPRPRPKKSPRP | 1.18
35 | RRIRMRPPRLPRPRPRPKMGPRP | -0.00235
36 | RRIRMRPPRLPRPRPRPKNSPRP | 0.132
37 | RRIRMRPPRLPRPRPRPKPCPRP | 0.366
38 | RRIRMRPPRLPRPRPRPKQDPRP | 1.14
39 | RRIRMRPPRLPRPRPRPKQNPRP | 1.16
40 | RRIRMRPPRLPRPRPRPKTRPRP | 0.994
41 | RRIRMRPPRLPRPRPRPKVGPRP | 1.27
42 | RRIRMRPPRLPRPRPRPKWFPRP | 0.275
43 | RRIRMRPPRLPRPRPRPKWWPRP | 0.755
44 | RRIRMRPPRLPRPRPRPLAAPRP | 2.64

Row | Sequence | shrunken log2 fold change
45 | RRIRMRPPRLPRPRPRPLAFPRP | 0.52
46 | RRIRMRPPRLPRPRPRPLAMPRP | 0.548
47 | RRIRMRPPRLPRPRPRPLAQPRP | 0.634
48 | RRIRMRPPRLPRPRPRPLCCPRP | 0.104
49 | RRIRMRPPRLPRPRPRPLCFPRP | 0.562
50 | RRIRMRPPRLPRPRPRPLCGPRP | 0.606
51 | RRIRMRPPRLPRPRPRPLCKPRP | 0.206
52 | RRIRMRPPRLPRPRPRPLDNPRP | 0.957
53 | RRIRMRPPRLPRPRPRPLDSPRP | 0.204
54 | RRIRMRPPRLPRPRPRPLEDPRP | 2.77
55 | RRIRMRPPRLPRPRPRPLGKPRP | 0.0958
56 | RRIRMRPPRLPRPRPRPLIKPRP | 0.0477
57 | RRIRMRPPRLPRPRPRPLLHPRP | 0.228
58 | RRIRMRPPRLPRPRPRPLLMPRP | 0.205
59 | RRIRMRPPRLPRPRPRPLMEPRP | 1.68
60 | RRIRMRPPRLPRPRPRPLNCPRP | -0.158
61 | RRIRMRPPRLPRPRPRPLRDPRP | 2.66
62 | RRIRMRPPRLPRPRPRPLREPRP | 3.88
63 | RRIRMRPPRLPRPRPRPLRKPRP | 1.54
64 | RRIRMRPPRLPRPRPRPLSCPRP | 0.163
65 | RRIRMRPPRLPRPRPRPLSIPRP | -0.0206
66 | RRIRMRPPRLPRPRPRPLSRPRP | 0.349

Row | Sequence | shrunken log2 fold change
67 | RRIRMRPPRLPRPRPRPLTFPRP | -0.291
68 | RRIRMRPPRLPRPRPRPLVFPRP | 0.102
69 | RRIRMRPPRLPRPRPRPLVPPRP | 0.208
70 | RRIRMRPPRLPRPRPRPLWYPRP | 0.205
71 | RRIRMRPPRLPRPRPRPLYWPRP | 0.0465
72 | RRIRMRPPRLPRPRPRPLYYPRP | -0.53
73 | RRIRMRPPRLPRPRPRPMAMPRP | 0.0319
74 | RRIRMRPPRLPRPRPRPMANPRP | 0.356
75 | RRIRMRPPRLPRPRPRPMDWPRP | 0.15
76 | RRIRMRPPRLPRPRPRPMINPRP | -0.00763
77 | RRIRMRPPRLPRPRPRPMLIPRP | -0.00481
78 | RRIRMRPPRLPRPRPRPMLSPRP | 0.0117
79 | RRIRMRPPRLPRPRPRPMMAPRP | 1.8
80 | RRIRMRPPRLPRPRPRPMMPPRP | 0.0687
81 | RRIRMRPPRLPRPRPRPMMQPRP | -0.00112
82 | RRIRMRPPRLPRPRPRPMMTPRP | 0.141
83 | RRIRMRPPRLPRPRPRPMNIPRP | -0.198
84 | RRIRMRPPRLPRPRPRPMPNPRP | 0.154
85 | RRIRMRPPRLPRPRPRPMQFPRP | 0.167
86 | RRIRMRPPRLPRPRPRPMRTPRP | 0.502
87 | RRIRMRPPRLPRPRPRPMSCPRP | 0.0466
88 | RRIRMRPPRLPRPRPRPMTIPRP | -0.329

Row | Sequence | shrunken log2 fold change
89 | RRIRMRPPRLPRPRPRPMTSPRP | 0.157
90 | RRIRMRPPRLPRPRPRPMVHPRP | 0.0734
91 | RRIRMRPPRLPRPRPRPMVYPRP | 0.0294
92 | RRIRMRPPRLPRPRPRPMYDPRP | -0.0496
93 | RRIRMRPPRLPRPRPRPMYQPRP | -0.0563
94 | RRIRMRPPRLPRPRPRPMYRPRP | -0.0586
95 | RRIRMRPPRLPRPRPRPNAIPRP | 0.0397
96 | RRIRMRPPRLPRPRPRPNCCPRP | -0.0306
97 | RRIRMRPPRLPRPRPRPNCFPRP | 0.153
98 | RRIRMRPPRLPRPRPRPNCWPRP | 0.755
99 | RRIRMRPPRLPRPRPRPNFEPRP | 0.422
100 | RRIRMRPPRLPRPRPRPNHGPRP | -0.00135
101 | RRIRMRPPRLPRPRPRPNHIPRP | -0.407
102 | RRIRMRPPRLPRPRPRPNIIPRP | 0.23
103 | RRIRMRPPRLPRPRPRPNIWPRP | 0.785
104 | RRIRMRPPRLPRPRPRPNKGPRP | 0.0758
105 | RRIRMRPPRLPRPRPRPNMLPRP | -0.358
106 | RRIRMRPPRLPRPRPRPNMQPRP | 0.0607
107 | RRIRMRPPRLPRPRPRPNNTPRP | -0.292
108 | RRIRMRPPRLPRPRPRPNPMPRP | 0.568
109 | RRIRMRPPRLPRPRPRPNRDPRP | 0.00277
